Positions count from the first letter of the chain named.
T1: mFc-Avi (mouse, UniProt P01863 99-330 = IgG part)
T1 construct: mouse Fc domain with Avi tag; negative control in the ELISA
T1 chain: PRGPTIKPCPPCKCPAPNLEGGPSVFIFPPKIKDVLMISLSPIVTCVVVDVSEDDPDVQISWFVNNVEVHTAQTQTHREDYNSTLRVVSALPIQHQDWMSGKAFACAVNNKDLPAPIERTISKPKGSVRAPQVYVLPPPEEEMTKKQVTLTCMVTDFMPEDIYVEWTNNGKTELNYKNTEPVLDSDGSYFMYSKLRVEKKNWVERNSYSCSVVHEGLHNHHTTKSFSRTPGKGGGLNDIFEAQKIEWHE

T2: human OX40-mFc (human, UniProt P43489 29-214)
T2 construct: produced in-house; negative control in the ELISA; also called human OX40-mFc-Avi; not shown: mFc part
T2 sequence: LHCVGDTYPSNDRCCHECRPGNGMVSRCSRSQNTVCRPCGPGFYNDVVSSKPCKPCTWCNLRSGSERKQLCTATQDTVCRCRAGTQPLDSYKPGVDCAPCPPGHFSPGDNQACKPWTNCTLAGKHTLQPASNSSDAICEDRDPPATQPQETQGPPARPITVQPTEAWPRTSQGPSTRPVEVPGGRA

T3: cyno CD137 on DO11.10-cCD137 cells (cynomolgus, UniProt Q07011 24-255 (human entry))
T3 construct: full-length cyno CD137 over-expressed on DO11.10 cells; also called cell surface-expressed cyno CD137
T3 chain: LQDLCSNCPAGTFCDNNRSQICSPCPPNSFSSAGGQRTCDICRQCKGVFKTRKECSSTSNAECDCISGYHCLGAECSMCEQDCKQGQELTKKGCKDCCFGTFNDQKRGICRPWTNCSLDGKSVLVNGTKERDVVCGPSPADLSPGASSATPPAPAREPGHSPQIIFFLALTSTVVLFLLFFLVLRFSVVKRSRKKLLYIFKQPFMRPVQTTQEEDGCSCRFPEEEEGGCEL

T4: TNFRSF1A-Fc (human, UniProt P19438 30-211, limits assumed)
T4 construct: bought; also called TNFRSF1A (R&D Systems, 372-RI-050/CF); not shown: Fc part of the bought fusion
T4 sequence (looked up): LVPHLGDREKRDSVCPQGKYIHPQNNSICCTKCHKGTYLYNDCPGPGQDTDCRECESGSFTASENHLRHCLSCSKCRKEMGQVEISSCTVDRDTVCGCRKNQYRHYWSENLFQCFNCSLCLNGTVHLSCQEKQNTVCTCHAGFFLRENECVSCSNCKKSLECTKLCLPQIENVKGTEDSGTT

T5: NGFR-Fc (human, UniProt P08138 29-250)
T5 construct: bought; also called NGFR (R&D Systems, 367-NR-050/CF); not shown: Fc part of the bought fusion
T5 sequence (looked up): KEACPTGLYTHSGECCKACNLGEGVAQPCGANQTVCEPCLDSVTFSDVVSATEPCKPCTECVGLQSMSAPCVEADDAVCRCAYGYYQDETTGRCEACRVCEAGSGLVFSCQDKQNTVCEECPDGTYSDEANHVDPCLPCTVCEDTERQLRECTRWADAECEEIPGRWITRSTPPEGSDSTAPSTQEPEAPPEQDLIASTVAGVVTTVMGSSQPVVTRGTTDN

T6: GITR-hFc-Avi (human, UniProt Q9Y5U5 26-161)
T6 construct: in-house produced; not shown: hFc and Avi part
T6 sequence: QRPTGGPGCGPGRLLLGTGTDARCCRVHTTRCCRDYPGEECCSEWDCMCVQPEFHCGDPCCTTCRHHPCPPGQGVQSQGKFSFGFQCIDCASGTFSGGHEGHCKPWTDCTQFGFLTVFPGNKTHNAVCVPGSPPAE

T7: TNFRSF1B-Fc (human, UniProt P20333 23-257)
T7 construct: bought; also called TNFRSF1B (R&D Systems, 726-R2-050); not shown: Fc part of the bought fusion
T7 sequence (looked up): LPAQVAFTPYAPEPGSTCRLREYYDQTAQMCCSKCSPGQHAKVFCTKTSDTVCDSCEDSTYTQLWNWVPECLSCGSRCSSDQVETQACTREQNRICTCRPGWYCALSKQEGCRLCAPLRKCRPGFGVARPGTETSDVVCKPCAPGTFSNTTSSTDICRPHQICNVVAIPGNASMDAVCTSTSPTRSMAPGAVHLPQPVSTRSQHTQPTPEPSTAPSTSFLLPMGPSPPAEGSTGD

B1: G1AA/FS30-5 (antibody, human IgG1, kappa, L234A L235A, V domains shown)
VH: EVQLLESGGGLVQPGGSLRLNCAASGFTFSSYAMSWVRQAPGKGLEWVSAISGSGGSTYYADSVKGRFTISRDNSKNTLYLQMNSLRAEDTAVYYCARSYDKYWGSSMYSGMDYWGQGTLVTVSS
VL: EIVLTQSPGTLSLSPGERATLSCRASQSVSSSYLAWYQQKPGQAPRLLIYGASSRATGIPDRFSGSGSGTDFTLTISRLEPEDFAVYYCQQYYSYYPVTFGQGTKVEIKR
notes: human IgG1 with LALA mutation in CH2; also called FS30-5 mAb
B2: FS20-22-49AA/FS30-16 variant, Methionine (100A) to F (bispecific antibody, V domains shown)
VH: EVQLLESGGGLVQPGGSLRLSCAASGFTFSNYAMHWVRQAPGKGLEWVSTIDPTDGATNYADSVKGRFTISRDNSKNTLYLQMNSLRAEDTAVYYCARSKYYTYFQYVALDYWGQGTLVTVSS
VL: B1 VL with Y92G, Y93S, S94R, Y95F, Y96F, V98I
notes: Single-site variant of the parent mAb^2 FS20-22-49AA/FS30-16
B3: G1AA/FS30-16 (antibody, human IgG1, kappa, L234A L235A, V domains shown)
VH: B2 VH with F105M
VL: B1 VL with Y92G, Y93S, S94R, Y95F, Y96F, V98I
notes: human IgG1 with LALA mutation in CH2; also called FS30-16 mAb
B4: FS20-22-49AA/FS30-16 variant, Methionine (100A) to P (bispecific antibody, V domains shown)
VH: B2 VH with F105P
VL: B1 VL with Y92G, Y93S, S94R, Y95F, Y96F, V98I
notes: as for B2
B5: G1AA/FS30-15 (antibody, human IgG1, kappa, L234A L235A, V domains shown)
VH: EVQLLESGGGLVQPGGSLRLSCAASGFTFSGSGMSWVRQAPGKGLEWVSIIYSTNGDTDYADSVKGRFTISRDNSKNTLYLQMNSLRAEDTAVYYCARDFYDIANYYAFDYWGQGTLVTVSS
VL: EIVLTQSPGTLSLSPGERATLSCRASQSVSSSYLAWYQQKPGQAPRLLIYGASSRATGIPDRFSGSGSGTDFTLTISRLEPEDFAVYYCQQAYYDPITFGQGTKVEIKR
notes: human IgG1 with LALA mutation in CH2; also called FS30-15 mAb
B6: G1AA/FS30-10 (antibody, human IgG1, kappa, L234A L235A, V domains shown)
VH: EVQLLESGGGLVQPGGSLRLSCAASGFTFSSYDMSWVRQAPGKGLEWVSDIDPTGSKTDYADSVKGRFTISRDNSKNTLYLQMNSLRAEDTAVYYCARDLMVYGFDYWGQGTLVTVSS
VL: B5 VL with A92S, Y94S, D95Y, I97V
notes: human IgG1 with LALA mutation in CH2; also called FS30-10 mAb

Tests used:
streptavidin = biological target: T8, streptavidin (UniProt P22629 37-163, limits assumed); assay: ELISA on streptavidin plates, mAb 0.1 to 300 nM
T8 construct: negative control in the ELISA; also called Streptavidin plates (Thermo Scientific, 15500)
T8 sequence (P22629 37-163 limits assumed): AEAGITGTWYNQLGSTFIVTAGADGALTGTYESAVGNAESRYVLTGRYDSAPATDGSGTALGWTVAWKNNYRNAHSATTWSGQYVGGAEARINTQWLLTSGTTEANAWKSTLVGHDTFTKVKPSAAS
Method: (§1) Blocking solution was discarded and a dilution series of anti-CD137 mAb concentrations (0.1 to 300 nM, 3-fold dilutions) was added and incubated for 1 hour at room temperature whilst shaking at 450 rpm. Plates were washed 3× with 300 µl PBS/Tween 0.05%. Goat anti-human IgG (Fc fragment) antibody conjugated to Horseradish Peroxidase (Sigma, A0170) was diluted 1:10000 in PBS and 90 µl was added to the wells. After incubation for 1 hour at 4° C. whilst shaking at 450 rpm, plates were washed 3× with 300 µl PBS/Tween 0.05%, 100 µl TMB substrate (eBioscience, 00-4201-56) was added to each well. The reaction was stopped between 2-10 minutes after addition of TMB by the addition of 50 µl 1M sulphuric acid solution. Optical density (OD) was read at 450-630 nm in a 96-well plate reader within 30 minutes of sulphuric acid addition and analysed using GraphPad Prism software (GraphPad Software, Inc.).

mFc-Avi = biological target: T1, mFc-Avi; assay: ELISA on streptavidin plates, mAb 0.1 to 300 nM
Method: as §1

human OX40-mFc = biological target: T2, human OX40-mFc; assay: ELISA on streptavidin plates, mAb 0.1 to 300 nM
Method: as §1

[1] = biological target: T3, cyno CD137 on DO11.10-cCD137 cells; assay: flow cytometry on DO11.10-cCD137 cells, GMFI vs concentration
Method: (§2) Non-specific binding was also assessed by testing binding to DO11.10 cells and HEK293 cells lacking CD137 expression.
(§3) Briefly, DO11.10, HEK293, DO11.10-hCD137 or DO11.10-cCD137 suspensions were prepared in PBS containing 2% BSA (Sigma, A7906) and seeded at 4×10^6 cell/ml with 50 µl/well in V-bottomed 96-well plates (Costar, 3897). mAb dilutions (1·10^-6-100 nM, 10-fold dilutions) were prepared at 2× the final concentration in triplicate in 1×DPBS (Gibco, 14190-094). […] The cells were washed once with PBS and resuspended in 100 µl of PBS containing DAPI (Biotium, 40043) at 1 µg/ml. The cells were analysed using a Canto II flow cytometer (BD Bioscience). Dead cells were excluded and the fluorescence in the FITC channel (488 nm/530/30) was measured. The geometric mean fluorescence intensity (GMFI) values were plotted vs the log concentration of antibody and the resulting curves were fitted using the log (agonist) vs response equation in GraphPad Prism.

[2] = biological target: T9, human CD137 on DO11.10-hCD137 cells (human, UniProt Q07011 24-255); assay: flow cytometry on DO11.10-hCD137 cells, GMFI vs concentration
T9 construct: full-length human CD137 over-expressed on DO11.10 cells by lentiviral transduction; also called cell surface-expressed human CD137
Method: as §2, §3
Target sequence in this assay (Q07011 24-255): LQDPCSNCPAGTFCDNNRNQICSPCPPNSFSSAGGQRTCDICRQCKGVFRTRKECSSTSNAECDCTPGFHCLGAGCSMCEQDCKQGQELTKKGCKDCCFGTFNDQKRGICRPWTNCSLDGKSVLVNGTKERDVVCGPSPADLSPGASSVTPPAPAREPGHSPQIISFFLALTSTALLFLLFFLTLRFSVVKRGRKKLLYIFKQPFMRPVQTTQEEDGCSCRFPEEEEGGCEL

[3] = biological target: human CD137 on primary human CD8+ T cells (human, UniProt Q07011 24-255); assay: cell-based or functional assay
Chain of human CD137 on primary human CD8+ T cells (Q07011 24-255): as above

[4] = biological target: T9, human CD137 on DO11.10-hCD137 cells; assay: cell binding at 10 nM to DO11.10-hCD137 cells, against the parent FS20-22-49AA/FS30-16
TNFRSF1A-Fc = biological target: T4, TNFRSF1A-Fc; assay: SPR, antigen immobilised on CM5 chip
Method: (§4) Flow cell 1 was run as a blank immobilisation. The five FS20-22-49AA/FS30 mAb² were diluted to 1 μM and 1 nM in 1×HBS-EP buffer (GE Healthcare, product code BR100188), allowed to flow over the chip for 3 min and then allowed to dissociate for 4 minutes. A 30-second injection of 10 mM glycine pH 1.5 was used for regeneration. […] Binding levels were determined at the end of the association phase and compared.
(§5) Specificity was tested against the same five human TNFRSF members closely-related to CD137 (TNFRSF1A, TNFRSF1B, GITR, NGFR and CD40) plus an additional closely-related TNFRSF member, human DR6 (DR6-Fc; R&D Systems, 144-DR-100), using SPR as described in Example 3.1.

NGFR-Fc = biological target: T5, NGFR-Fc; assay: SPR, antigen immobilised on CM5 chip
Method: as §4, §5

GITR-hFc-Avi = biological target: T6, GITR-hFc-Avi; assay: SPR, antigen immobilised on CM5 chip
Method: as §4, §5

CD40-mFc = biological target: T10, CD40-mFc (human, UniProt P25942 21-193); assay: SPR, antigen immobilised on CM5 chip
T10 construct: in-house produced; not shown: mFc part
T10 sequence (P25942 21-193): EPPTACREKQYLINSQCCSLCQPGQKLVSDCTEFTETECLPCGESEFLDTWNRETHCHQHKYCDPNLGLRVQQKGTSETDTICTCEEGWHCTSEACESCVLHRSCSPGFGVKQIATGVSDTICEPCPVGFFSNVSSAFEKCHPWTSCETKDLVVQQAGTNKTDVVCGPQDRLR
Method: as §4, §5

TNFRSF1B-Fc = biological target: T7, TNFRSF1B-Fc; assay: SPR, antigen immobilised on CM5 chip
Method: as §4, §5

| Binder | binding result (streptavidin) | binding result (mFc-Avi) | binding result (human OX40-mFc) | EC50 [1] | EC50 [2] | Activity of non-crosslinked mAbs at 100 nM (hIL-2 pg/ml) [3] | EC50 (nM), hIL-2 release, primary human CD8+ T cell activation assay, crosslinked mAb [3] | Emax (hIL-2 pg/ml), crosslinked mAb [3] | fold change of cell binding at 10 nM against the parent clone [4] | binding result (TNFRSF1A-Fc) | binding result (NGFR-Fc) | binding result (GITR-hFc-Avi) | binding result (CD40-mFc) | binding result (TNFRSF1B-Fc) |
| --- | --- | --- | --- | --- | --- | --- | --- | --- | --- | --- | --- | --- | --- | --- |
| B1 | no binding (tested: 300 nM) | no binding (tested: 300 nM) | no binding (tested: 300 nM) | 0.45 nM | 0.24 nM | 509 pg/mL | 3.2 nM | 10900 pg/mL | – | – | – | – | – | – |
| B2 | – | – | – | – | – | – | – | – | < 1.6 fold | – | – | – | – | – |
| B3 | no binding (tested: 300 nM) | no binding (tested: 300 nM) | no binding (tested: 300 nM) | 0.36 nM | 0.21 nM | 402 pg/mL | 1.4 nM | 4840 pg/mL | – | – | – | – | – | – |
| B4 | – | – | – | – | – | – | – | – | < 1.6 fold | – | – | – | – | – |
| B5 | no binding (tested: 300 nM) | no binding (tested: 300 nM) | no binding (tested: 300 nM) | 0.31 nM | 0.15 nM | 449 pg/mL | 8.5 nM | 11100 pg/mL | – | binds | binds | binds | binds | binds |
| B6 | no binding (tested: 300 nM) | no binding (tested: 300 nM) | no binding (tested: 300 nM) | 0.57 nM | 0.32 nM | 497 pg/mL | 5.4 nM | 8560 pg/mL | – | – | – | – | – | – |
